# Results: US20010011078A1 (University of Texas, published 2001)
# B1: DFF45 (45-kDa subunit of DNA fragmentation factor), native human protein (other)
# chain: MEVTGDAGVPESGEIRTLKPCLLRRNYSREQHGVAASCLEDLRSKACDILAIDKSLTPVTLVLAEDGTIVDDDDYFLCLPSNTKFVALASNEKWAYNNSDGGTAWISQESFDVDETDSGAGLKWKNVARELKEDLSSIILLSEEDLQMLVDAPCSDLAQELRQSCATVQRLQHTLQQVLDQREEVRQSKQLLQLYLQALEKEGSLLSKQEESKAAFGEEVDAVDTGMSRETSSDVALASHILTALREKQAPELSLSSQDLELVTKEDPKALAVALNWDIKKTETVQEACERELALRLQQTQSLHSLRSISASKASPPGDLQNPKRARQDPT
# notes: Native protein, purified from HeLa S-100 as part of the DFF heterodimer, or endogenous in 293 and U937 cell extracts; also called 45-kDa polypeptide; endogenous protein
# Tests used:
# [1] = target: recombinant DFF40 tagged with six histidine at its C-terminus (human) (UniProt O76075); experiment: cell-based or functional assay
# [2] = tested on: lamin B1
# [3] = tested on: T1, DFF40 (40-kDa subunit of DNA fragmentation factor), native human protein
# T1 sequence: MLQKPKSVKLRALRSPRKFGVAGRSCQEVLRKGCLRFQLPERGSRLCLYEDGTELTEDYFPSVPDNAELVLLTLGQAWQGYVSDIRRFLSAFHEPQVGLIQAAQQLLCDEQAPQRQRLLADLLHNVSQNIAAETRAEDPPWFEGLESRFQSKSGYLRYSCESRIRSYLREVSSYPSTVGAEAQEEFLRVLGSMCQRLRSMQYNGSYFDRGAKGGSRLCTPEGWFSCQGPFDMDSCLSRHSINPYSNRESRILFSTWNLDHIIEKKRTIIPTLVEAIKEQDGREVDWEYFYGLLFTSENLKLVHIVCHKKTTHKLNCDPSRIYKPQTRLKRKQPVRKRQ
# [4] = tested on: T2, DFF45 (45-kDa subunit of DNA fragmentation factor), native human protein
# T2 sequence: B1 chain
# [5] = tested on: T3, DFF45 fusion protein with a six-histidine tag at the NH2-terminus
# T3 sequence: B1 chain
# [6] = tested on: poly(ADP-ribose) polymerase (PARP)
# [7] = target: T4, DFF40 (40-kDa subunit of DNA fragmentation factor), native human protein (human, UniProt O76075 1-338); experiment: co-elution from the Mono Q column (last purification step), SDS-PAGE with Coomassie stain
# T4 construct: Native protein purified from HeLa S-100 as part of the DFF heterodimer; also called 40-kDa polypeptide
# T4 sequence: T1 sequence
# Description: Ammonium sulfate (1 M) was added directly to the SP-Sepharose 0.5 M eluate. After rotating at 4° C. for 1 hr, the sample were centrifuged at 15,000 rpm for 30 min in a Sovall IA-600 rotor. The supernate was directly loaded onto a 100 ml phenyl Sepharose column equilibrated with buffer A containing 1 M ammonium sulfate and 0.5 M NaCl. The column was washed with three bed volumes of buffer A containing 1 M ammonium sulfate and 0.5 M NaCl and the bound material was eluted with two bed volumes of buffer A. […] was added to the phenyl Sepharose eluate to 50% saturation. After stirring at 4° C. for 5 hr, the sample was centrifuged at 15,000 rpm for 15 min in a Sovall JA-600 rotor. The pellet was resuspended in buffer A and loaded onto a Superalex-200 16/60 gel filtration column (Pharmacia) equilibrated with buffer A and eluted with the same buffer. Fractions of 4 ml were collected and assayed for DFF activity. The active fractions from the gel filtration column were pooled and loaded onto a MonoS 10/10 column (Pharmacia) equilibrated with buffer A. The column was washed with 50 ml of buffer A and eluted with a 200 ml 0-0.2 M linear NaCl gradient. […]
# DFF activity eluted from a Mono Q column, the last step of the purification, at about 250 mM NaCl. […] No other proteins were detected in fraction containing the peak of DFF activity.
molecule,measurement,setting,value
histone H1,DNase activity of A-DFF40 on purified plasmid DNA,[1],> 10 fold
caspase-3 (active recombinant),time course of cleavage in isolated nuclei (immunoblot),[2],the rate of lamin B1 cleavage by caspase-3 remained the same with or without DFF
same,"cleavage of biotinylated DFF (SDS-PAGE, streptavidin-peroxidase chemiluminescence)",[3],the 40-kDa subunit remained intact
same,"cleavage of biotinylated DFF (SDS-PAGE, streptavidin-peroxidase chemiluminescence)",[4],Incubation with caspase-3 resulted in the cleavage of the 45-kDa subunit into fragments of molecular masses of 30 kDa and 11 kDa
same,cleavage of the fusion protein (SDS-PAGE),[5],"Incubation of this fusion protein with caspase-3 resulted in its cleavage into three fragments of 30 kDa, 18 kDa and 11 kDa at the early time point"
same,rate of cleavage in isolated nuclei (immunoblot),[6],The same conclusion was obtained when the rate of cleavage of PARP was measured
B1,binding result,[7],binds
